Results from the Human Domainome abundance scans (Beltran et al. 2025).
± gives the uncertainty stated by the source.

Experiment: abundance fitness (aPCA) (normalised: wild type 0, dead -1); higher = more abundant; growth selection in yeast, the domain comes from the species named
Conditions: Homo sapiens

Substance	abundance fitness
Telomeric repeat-binding factor 2 A513T, Q15554	0.25 ± 0.098
Telomeric repeat-binding factor 2 A514R, Q15554	-0.428 ± 0.11
Telomeric repeat-binding factor 2 E509V, Q15554	-0.353 ± 0.076
Telomeric repeat-binding factor 2 I529L, Q15554	-0.213 ± 0.079
Telomeric repeat-binding factor 2 K491R, Q15554	-0.21 ± 0.065
Telomeric repeat-binding factor 2 K517Q, Q15554	-0.035 ± 0.044
Telomeric repeat-binding factor 2 N518H, Q15554	-0.227 ± 0.068
Telomeric repeat-binding factor 2 N523D, Q15554	-0.199 ± 0.061
Telomeric repeat-binding factor 2 P520D, Q15554	-0.564 ± 0.055
Telomeric repeat-binding factor 2 Q490K, Q15554	-0.247 ± 0.21
Telomeric repeat-binding factor 2 S497D, Q15554	0.392 ± 0.099
Telomeric repeat-binding factor 2 S516L, Q15554	0.222 ± 0.087
Telomeric repeat-binding factor 2 V522R, Q15554	0.031 ± 0.058
Telomeric repeat-binding factor 2 W499Q, Q15554	-0.018 ± 0.095
Telomeric repeat-binding factor 2 Y507F, Q15554	-0.559 ± 0.17
